These results are taken from the nanobody polyreactivity screen of Harvey et al. (2022).

This series is described as follows: yeast display, Sf9 membrane polyspecificity reagent, FACS + sequencing; frameworks hold sequencing errors. Put shortly: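 Genes from sorted yeast were amplified by colony PCR, read by MiSeq 2 × 250 sequencing and filtered on CDR length. These cells carried a synthetic nanobody library in Saccharomyces cerevisiae BJ5465 and were sorted by FACS into low and high (top ~1%) gates on anti-HA and streptavidin fluorescence. Polyreactivity is labelled according to the gate of origin.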
For “QVQLQESGGGLVQAGGSLRLTCAASGSISAVAAMGWYRQAPGKEREFAASVNWGTNTNYADSLKGRFTISRDNAINTLYLQMNSLNPEDTAVYYCGVLPDWETRHDYWGHGTQVTVSS”, the “polyreactivity (PSR sort gate)” value is given as “low polyreactivity”.

In the case of “QVQLQESGGGLVQAGGSLRPSCAASGNIFVPFKMGWYRMAPGKERELVASINRGSTTNYADSVKGRFTISRDNAKNTVYLQMISLKPEDTAVYYCAAIAYPDIPTYLDYDSDYFYWDQGTQVTVSS”, the “polyreactivity (PSR sort gate)” value is “high polyreactivity”.

For “QVQLQESGGGLVQAGGSLRQSCAASGYIFPYYSMGWYRQAPGKERGLVACIAAGTTTNYADSVKGRFTISRDNAKNTVYLQMISLKPEDAAVYYCAALNAFNTGHWYWGQGTQVTVSS”, the “polyreactivity (PSR sort gate)” value is on record as “low polyreactivity”.

With “QVQLQESGGGLVQAGGSLRQSYAASGYIFPSLAMGWYRQAPGKEREFVAAIGRGSTNNYADSVKGRFTISRDNAIYTAYQQMNSLKPEDTAVYYCGAAASPLTRHLYWGQGTQVTVSS”, the “polyreactivity (PSR sort gate)” value was “low polyreactivity”.

Turning to “QVQLQESGGGLVQAGGSMRLSCAASGYNTIEVTRACFARRRAKNANLLPLLITVVLPIKRIAYNTISRDNAKNTVYLQMNSLKPEDTAVYNCAANTIGTDLYEYWGQGTQATVSS”, the “polyreactivity (PSR sort gate)” value is “low polyreactivity”.

Regarding “QVQLQESGGGLVQAGGSPRLSCAASDNIFPDSGMCWYRQAPGKERELVATIGFGATRNYADSVKGRFTISRDNAKNTVYLQMNSLQPEDTAVYYCAADPLNYQYFCYWGQGTQVTVSS”, the “polyreactivity (PSR sort gate)” value is on record as “low polyreactivity”.

On to “QVQLQESGGGLVQAGGSQRLSCAASGNISVTGFMGCYRQAPGKERELVASIGIGGTTYYADSVKGRFSISRDNEKNTVYLQMNSLKPEDTAVYYCAARYLYYAYSYWGQGTQVTVSS”, for which the “polyreactivity (PSR sort gate)” value was “low polyreactivity”.

“QVQLQESGGGLVQAGGSQRLSCAASGYIFYFQYMGWYRQAPGKEREFVAAISDGANTNYADSVKGRFTISRDNAKNTEYLQMNSLKPEDTAVYYCAVYADENYYYIYWGQGTQVTVRS”: the “polyreactivity (PSR sort gate)” value is “low polyreactivity”.

As to “QVQLQESGGGLVQAGGSQRLSCSASGYIFYFQYMGWYRQAPGKEREFVAAISDGANTNYADSVKGRFNISRDNAKNTEYLQMNSLKPEDTAVYYCAARSFFKMYYWGQGTQVTVSS”, the “polyreactivity (PSR sort gate)” value is “low polyreactivity”.

With “QVQLQESGGGLVQAGGSRRLSCAASGTIFTARFMGWYRQATGKERELVSTITDGGNTNHAESVKCRFTISRDNAKNTGSLQMNSLKPEYAAVYYCAAGEVDNDTLLYWGQGSQVTVSS”, the “polyreactivity (PSR sort gate)” value is given as “low polyreactivity”.

For the sequence “QVQLQESGGGLVQASGSLRLSCAASGNIFPDYVMGWYRLAPGKEREFVANITGGSTTNYADSVKGRFTISRDNAKNTVYLQMNSLKPEDTAVYYCAVNFGTVVLYLYWGQGTQVTVSS”, the “polyreactivity (PSR sort gate)” value is “high polyreactivity”.

As to “QVQLQESGGGLVQEGGSLRLSCAASGNISPPADMGWYRQAPGKERELVASIGTGGTTNYADSVKGRFTISRDNAKNTVYLQMNSLKPDDTAVYYCAAVRYEYNPYDYWGEGTQVTVSS”, the “polyreactivity (PSR sort gate)” value was “low polyreactivity”.

Take “QVQLQESGGGLVQVGGSLRLSCAASGTIFIYGFLGWNRQAPGKERELVASINLGGITNYADSVKGRFTISRDNATNTVYLQMISLKPEDTAVYYCAAYVVTGQNYGYWGQGTQVTVSS”: the “polyreactivity (PSR sort gate)” value was “low polyreactivity”.

Turning to “QVQLQESGGGLVRAGGSLRLSCAASGYISTSIAMGWYRQAPGKERELVASFGGGAITNYADSVKGFTISRDNGKNSVYLQMNSLKPEDTAVYYCAVYHGDRGYYSYWGQGTQVTVSS”, the “polyreactivity (PSR sort gate)” value is reported as “low polyreactivity”.

As to “QVQLQESGGGMEQAGGSLRLSCAASGYISWADYMVWYRQAPGKERELVAGIGYGSTTYYADSVKGRFTISRANAKNTAYLQMNSLKPEDTAVYYCAVGWYRDTAYKYWGQGTQVTVSS”, the “polyreactivity (PSR sort gate)” value is on record as “low polyreactivity”.

On to “QVQLQESGGGMVQAGGSLLWCAASGTISYNREMGWYRQAPGKERELVAGIGVGTITYYADSVKGRFTIIRDNAKNTVYLQMNSLKPEDTAVYYCAAHIDGIDSHAYCGQGTQVTVSS”, for which the “polyreactivity (PSR sort gate)” value is given as “low polyreactivity”.

On to “QVQLQESGGGMVQAGGSLRLSCAASGYISWADYMGWYRQAPGKERELVAGIGYGSTTYYADSVKGRFTISRDNAKNTAYLQMNSLKPEDTAVYYCSVGWYRDTAYKYWGQGTQVTVSS”, for which the “polyreactivity (PSR sort gate)” value is recorded as “low polyreactivity”.

Regarding “QVQLQESGGGMVQAGGSLRLSCAASGYISWADYMVWYRQAPGKERELVAGIGYGSTTYYADSVKGRFTISRANAKNTAYLQMNSLKPEDTAVYYCAVGWYRDTAYKYWGQGTQVTVSS”, the “polyreactivity (PSR sort gate)” value is recorded as “low polyreactivity”.

Consider “QVQLQESGGGPVLAGGSLRLSCAASGTIFVRLDMGWYRPAPGKEREFVATIGSGSSTYYADSVKGSFTISRDNVKNTVYLQMNSLQPEDTAVYYCAVSAAEQSRHYYWDQGTQVTVSS”, for which the “polyreactivity (PSR sort gate)” value is reported as “low polyreactivity”.

Regarding “QVQLQESGGLVQAGGSLRLSCAASGSISGRNVMGWYRQAPGKEREFVASITDGSSTNYADSVKGRFTISRDNAKNTVYLQMNSLKPKDTAVYYCAAYAQRAKSFGYWGRGTQVTVSS”, the “polyreactivity (PSR sort gate)” value is given as “low polyreactivity”.

In the case of “QVQLQESGGRLVQAGGSMRLSCAASGTISDSGLMGWYRQAPGKERELVAGISSGGITNYADSVKGRFTISRDNAKNTVSLQMNSLKPEDTAVYWGQGTQVTVSS”, the “polyreactivity (PSR sort gate)” value is recorded as “low polyreactivity”.

As for “QVQLQESGGVQAGGSLRLSCAASGYISRSDVMGWYRQAPGKERELVATINNGTITYYADSVKGRFTISRDNAKNTVYLQMNSLIPEDTAVHYCAVVQSDTDSLYYWGQGTQVTVSS”, the “polyreactivity (PSR sort gate)” value is “low polyreactivity”.

Turning to “QVQLQESGGVQAGGSLRLSCAASGYITRSDVMGSYRQAPGKERELVATINNGTMTYYADSEKGRYTISRDNAKKTVYLQKNSQKPEDTAVHYCAVDQSDTDSLYYWGQGTQVTVSS”, the “polyreactivity (PSR sort gate)” value is listed as “low polyreactivity”.

“QVQLQESGGVQAGGSLRLSSAATGYIARSDDMGWYRQAPGKERELVATINNGTITYYADSVKGRFTISRDNAKNTVYLQMNSLKPEDTAVHYCAVVQSDTDSLYYWGQGTQVSVSS”: the “polyreactivity (PSR sort gate)” value is recorded as “low polyreactivity”.

Consider “QVQLQESGRRPGAAGGSPRMSCAASGNIFWVAVMGRYRQAPGKERELGASIGFGCTTYYADSVKCRFTISRDNAKNTVYLQMISLKPEDTAVYYCAAPHYDWGELDYWGQGTQVPVSS”, for which the “polyreactivity (PSR sort gate)” value is “low polyreactivity”.

With “QVQLQESGSGLVQAGGSLRLSCAASGNISQYNDIGWYRQAPGKEREPVATINSGSITYYADSVKGRLTISRDNAKNTVYLEMNSLKPEDTAVYYGAVKQHGFVYLEYWGQGTQVTVSR”, the “polyreactivity (PSR sort gate)” value is listed as “high polyreactivity”.

Consider “QVQLQESGSGLVQAGGSLRLSCAASGYISLGDNMGWYRQAPGKEREFVATISVGGITYYVDSVKGRFTISRDIAKNTVYLQMNSLKPEDTAVYYCADLDIYYFRYYYWGQGTQVTVSS”, for which the “polyreactivity (PSR sort gate)” value is “low polyreactivity”.

For the sequence “QVQLQESRGGLVQAGGSLRLSCAATGTIFTDRIMGWYLQAPGKERELVAGISPGTSTNYADSVKGRFTISRDNEKNTVYLQMNSLKPEDTAVYYCAADWSTGNTLPYWGQGSQVTVSS”, the “polyreactivity (PSR sort gate)” value was “high polyreactivity”.

Take “QVQLQESSGGLVQAGGSLRMSCAASGTIFHFHIIGWYRQAPRKEREFVAASSYGTRTYYADSVKGRFTISRDNAKNTVYLQMNSQKPEDTAVYYCAVYDYLEVYCWYWGQGTQVTVRS”: the “polyreactivity (PSR sort gate)” value is listed as “low polyreactivity”.

Regarding “QVQLQESVGGLVQAGGSLLLSCAASGNIFPTDRMGWYRQAPGKELEFVATISHGGSTNYADSVKGRFTISRDNAKNTVYLEMNSLKPEDTAVYYCAVWSLGRWRHYFWGQGTQVTVSS”, the “polyreactivity (PSR sort gate)” value is given as “low polyreactivity”.

“QVQLQESVGGLVQAGGSLRLSCAASGNIFDADIMGRYRQAPGKERELVASITDGGSTNYADSVKGRFTISLDNAKNTVYLHMNSLKPEDTAVYYCAARPHRYTSRHGYWGQGTQVTVSS”: the “polyreactivity (PSR sort gate)” value was “high polyreactivity”.

Turning to “QVQLQESVVGLVLAGGSLRLICSASANISVYGSMGWYRKAPGKEREFVATIDPGTNTNYADSVKDRFTISRDNAKNTVFLQINSLKPEYTAVYYCAVEGGSDWPYRYWGQGTQVTVSS”, the “polyreactivity (PSR sort gate)” value is given as “low polyreactivity”.

In the case of “QVQLQQSGGGLVQAGGSLRLSCAASGSIFDGFNMGWYRQAPGKAREFVAAIRYGASTYYADSVKGRFTVSRDNAKNSVYLQMNSLNPEDTAVYYCAKAYSDGYFPTFDYDYWGQGTQVTVSS”, the “polyreactivity (PSR sort gate)” value is “low polyreactivity”.

For the sequence “QVQLQVSGGDLVQAGGSLRLSCAASGTIYGLTSMGWYRQAPGKEREFVAAITDGGNTNYADSVKGRFTISRDNAKNSVYLQMISLTPEDTAVYYCALLFSDEAYYAYCGQGTQVTVSS”, the “polyreactivity (PSR sort gate)” value is listed as “low polyreactivity”.

For the sequence “QVQLQVSGGGLVQAGGSLRLSCEASGSIFLTSEMGWYRQAPGIERELVAAIATGTSTNYADSVKGRFTISRDNAKNTVYLQMNSLKPEDTAVYYCATYHYWGQGTQVTVSS”, the “polyreactivity (PSR sort gate)” value is listed as “low polyreactivity”.

On to “QVQLRESGAGGRQPAPELLGERQYFYWSADGLVSQAPGKEREFVAGIDRGTITNYADSVRGRFTISRDNAKNTVFRQMNSLKPEDTAVYYCAVPAYGDPRSYYWGQGTHVTVSS”, for which the “polyreactivity (PSR sort gate)” value is “high polyreactivity”.

As to “QVQLVASAGGLVQAGRSLRLSCAASGRIFSWYTMGWYRQAPGKERELVADITYSGGSTYYADSVKGRFTISRDNAKNTVYLQMNSLKPEDTAVVYCIADPRWYHFEYGYWGQGTQVTVSS”, the “polyreactivity (PSR sort gate)” value is recorded as “high polyreactivity”.

As to “QVQLVASGGGLVQAGGSLRLSCAASGLIFYIYMGWYRQGPGKERELVAVISSSGNSTYYADSVKGRFTISRDNAKNTVYLQMNSLKQEDTAVSYCNASAYYPPSSSRYDYWGQGTQVTVSS”, the “polyreactivity (PSR sort gate)” value is recorded as “low polyreactivity”.

On to “QVQLVASGGGLVQAGGSLRLSCSASGSIFKYYAMGWYRQAPGKERELVAAISSSGNTYYADSVKGRFTISRDNAKNTVYLQMNSLKPEDTAVYYCAAGIRRYRTYDYWGQGTQVTVSS”, for which the “polyreactivity (PSR sort gate)” value is on record as “high polyreactivity”.

Regarding “QVQLVDSGAGLVQAGGSLRLICAASGSIFPYYAMGWYRQAPGKERELVAGISNGDSTNYADSVKGRFTISGDNAKNTVYLQINSLKPEDTAVYYCSTVLPGGRYYGPYDFWGQGTQVTVSS”, the “polyreactivity (PSR sort gate)” value is “low polyreactivity”.

Turning to “QVQLVDSGAGLVQAGGSLRLSCAASGRIFYSYAMGWYRQAPGKDRELVARITRGSSTYYADSVKGRFTISRDNAKNTVYLQMNSLKPEDTAVYYCAKSRYTALTNHWSHDYWGQVTQVTVSS”, the “polyreactivity (PSR sort gate)” value is on record as “low polyreactivity”.
